Measured values reported in patent publication US20110294728, “Antiviral Polypeptides” (published 2011).

Legend:
[1] = molecular target: HIV-1 reverse transcriptase p66/p51 heterodimer (HIV-1 (BH10), UniProt P03366;P03366 P03366:600-1159,P03366:600-1039); assay: steady-state fluorescence quenching; 50 mM Tris-HCl pH 8.0, 50 mM KCl, 10 mM MgCl2, 1 mM DTT, 25 C; details: tags: recombinant from E. coli; His-tagged and untagged preparations described, form used in the titration not specified; label: 6-FAM at primer 3' end; primer/template with 5' single-stranded template overhang
[2] = molecular target: HIV-1 reverse transcriptase p66/p51 in complex with PAW peptide (HIV-1 (BH10), UniProt P03366;P03366 P03366:600-1159,P03366:600-1039); assay: steady-state fluorescence quenching; 10 uM PAW; 50 mM Tris-HCl pH 8.0, 50 mM KCl, 10 mM MgCl2, 25 C; details: protein: synthetic; label: 6-FAM at primer 3' end; primer/template with 5' single-stranded template overhang
[3] = molecular target: HIV-1 reverse transcriptase p66/p51 in complex with FITC-PAW (HIV-1 (BH10), UniProt P03366;P03366 P03366:600-1159,P03366:600-1039); assay: quenching of FITC-PAW pre-bound to RT on titration with unlabelled p/t; 10 mM MgCl2, 25 C; details: tags: PAW with C-terminal Cys-FITC; primer/template with 5' single-stranded template overhang

Binder | Kd [1] [nM] | Kd [2] [nM] | Kd [3] [nM]
19/36-mer DNA/DNA primer/template (HIV-1 PBS) (dsDNA) DNA 1: TCCCTGTTCGGGCGCCACT DNA 2: TGTGGAAAATCTCATGCAGTGGCGCCCGAACAGGGA | 22 | 99 | –
19/36-mer (printed 18/36) DNA/DNA primer/template, unlabelled (dsDNA) DNA 1: TCCCTGTTCGGGCGCCACT DNA 2: TGTGGAAAATCTCATGCAGTGGCGCCCGAACAGGGA | – | – | 66.5
